Laboratory results as given in the DeepSol protein solubility set.

Experiment: soluble on expression in E. coli; label from the status in PepcDB or PDB records

| Sequence | soluble on expression in E. coli |
| --- | --- |
| MSLSQDGLLGEVLSEGVLTLTLGRAPAHPLSRAMIAALHDALRRAMGDDHVHVLVIHGPGRIFCAGHDLKEIGRHRADPDEGRAFVTDLFEACSALMLDLAHCPKPTIALVEGIATAAGLQLMAACDLAYASPAARFCLPGVQNGGFCTTPAVAVSRVIGRRAVTEMALTGATYDADWALAAGLINRILPEAALATHVADLAGALAARNQAPLRRGLETLNRHLELPLEQAYALATPVMVEHFMDPGRRHLDWIDEGHHHHHH | soluble |
| MAEGPLEAPFWRKGLLVAGLDEAGRGAWAGPIVVGAVVLPPGEYPFRDSKLLSPKARERLAEKVKEVALAFALGVAEAAEVDRLGVLKATLLAAERALLSLPLAPEALVTDYLPLPTPLPLLSPPKADEKSPTVAAASILAKVHRDRIMDELDRLYPGYGFARHKGYGTQEHQEALLALGPSPVHRKRFAPVAQAPLRFPEAP | soluble |
| MGHHHHHHSHMGAGLSADRRRSLCAREFRKLGFSNSNPAQDLERVPPGLLALDNMLYFSRNAPSAYSRFVLENSSREDKHECPFARGSIQLTVLLCELLRVGEPCSETAQDFSPMFFGQDQSFHELFCVGIQLLNKTWKEMRATQEDFDKVMQVVREQLARTLALKPTSLELFRTKVNALTYGEVLR | soluble |
| MGSDKIHHHHHHMKICLVSSMHPPHDKRVFDKEAVTLSSNGYKVLHLCPGTASDSGVFNDVEIVPYCRPSGIKGRLLQIFQLYRMANKINADVYHCNEVDSWFVGVLLKILRKKLCVFDVHEHYPSTFAESRFPKWIQPAVSSLVKLIFRLFLPFTDRLVLAKKSVSDDFPNSDSKKVLVRNFTPLSGINFTGVREVVPKGSDVTLIHLGLFGKIRGWPQTLEALKTMKQKNVRLVVIGDFNDGSRADFDSVVSAYGLNDRVVVYDWMPFEDAFKHLMQAHIGLVVFQPGILNHVYAMPHKMFDYMAAGMAVICPEFAMEVAPFVKEAKCGLLVDTANPADLAKKLDELVSSPDLIHEMGVRAQKAVQQHYNWEAEAKHLIQMYKELEELQ | not soluble |
| NTLGMVMHADGGYLGSKPYCASGQYIKRMSDYCRGCAYKVTESTTDDACPFNALYWHFLMRHSDQLRRNQRMGMIYKNLDRMAEAKQQALWERGEHLLARLDAGEAL | not soluble |
| MEPPSSRPEEPPSWEDLYKINLMPSELFLKFRKELQGLRVGVNLELYNEPTNDYHAKLVLKPLCPERKWKFIYEPLHQEVRVLSKKIPVTRFLNLQVGVGHNFQMNAIGWKWKLTSCLGGDGVSRIRNKTTLGLSPGIDFRFGWRADFVLPEVTGALGTEEPLFNMSSGRLEASLDRVEAIVTHSDYL | soluble |
| MGSDKIHHHHHHLSCCGQIGKITVGNGIWGILEEGMQSKAGTADQGWALEEKLDEFNRHQHPFNGSGADESFAYVIKKGDQVVGGVAASSDDNAIGYIELLWVDETMRRQGLGRALLATVEQALQAAGCKRVRLETFDYQAPAFYLENGYHEFGKLNYDYAGVIEYFFVKMLSLPIGYNIPPAFSIEAAEDLAMEAIENKLHAYNVKMKPLLQQKMGVTFTFLAEENGQCIGGIFGYSTMYKIGYIESLWVAETNRHAGVGTALVDVLVNALKDFGCPIVHLDTMSYQGAAFYKALGFEQFGQLTYPEIDAAEVFFVKHLVSVGERTINANK | not soluble |
| MTHSHRRHDISDRIWSLLEGHLPGREGAWGGVATDNRQFINAVFWIIRTGAPWRDLPPDYGGWSNTHRRFIRWRDKGIWEKLLEILIDDPDYEWLIMDASHCKVHPHASGARGGNQDMNRTKGGSTPRYIWPWMRMVCRSESLLHKVPLLIARRLAA | not soluble |
| GVEITEGVTVTAKGNTEGNTADLAIDGDLSTYWESSNDYKWIEVDLGGIYELSKIEIFNKDEAVYKYNIYASEDGENFNKIAYKNNDNVSDSNGNMHTIDNVRAGKIRIDVVQNSNSDRVNIAEINVFGKNTGESLPEVKKIATSNFSETPWATEYEKFNSDSAYANEKTLNEIKNLVGRVIGREFKDKFIFEIRDQLNGNDVFEVSDSGDGKVLIKGNNGVSLASGFNYYLKNYCNVSYNPIMGSNLKMPETMPSVGERVVIDTPYEHRYALNFCTYSYTMSFWDWDQYEEFLDWCAMNGVNLVLDIIGQEEVLRRTLNEFGYSDEEVKEFISGPAYFAWFYMQNMTGFGGPLPNDWFEQRAELGRKMHDRMQSFGINPVLQGYSGMVPRDFKEKNQEAQTISQGGWCGFDRPDMLKTYVNEGEADYFQKVADVFYEKQKEVFGDVTNFYGVDPFHEGGNTGDLDNGKIYEIIQNKMIEHDNDAVWVIQNWQGNPSNNKLEGLTKKDQAMVLDLFSEVSPDWNRLEERDLPWIWNMLHNFGGRMGMDAAPEKLATEIPKALANSEHMVGIGITPEAINTNPLAYELLFDMAWTRDQINFRTWTEDYIERRYGKTNKEILEAWNIILDTAYKKRNDYYQGAAESIINARPGFGIKSASTWGHSKIVYDKSEFEKAIEIFAKNYDEFKDSDAFLYDFADILKQLLANSAQEYYEVMCNAYNNGNGEKFKFVSGKFLELIKLQERVLSTRPEFLIGNWIEDARTMLKDSDDWTKDLFEFNARALVTTWGSRNNADGGGLKDYSNRQWSGLTEDYYYARWEKWINGLQAELDGGAKAPNIDWFKMEYDWVNKKSDTDKLYPTEASNENLGELAKIAMESYSVTNMDKILGENES | soluble |
| MGSDKIHHHHHHMSNLKHTRHNSHNVRHHSTGNSMNYVSTGQGEAILLIHGLFGNLDNLKGLGQALEAHHQVIRVDVPNHGLSEHRQQMDYPSLAKAMVDLLDELELERVHIVGHSMGGKIAMATALAYPNRIISLVAADIAPVAYQPRHNAVFAALESLPLEGHTDRRFALAHLLAAGIDDATAQFLLKNLQRSGTGFRWKMNLTGLKSGYPNIIGWHNLPNEPQLVFAGPSLFIRGGDSNYVAAAHRDEILRQFPQAQAKTLEGCGHWLHAQKPTIFNRIVSEFIDKHTV | not soluble |
| MGGMPITSFKFLYYFQIDDGDEETDIYLSPKEKATQTFSIKYNNNNTPTFSGDLRAGEKYTFDFHINFYDFATITIVQKREGEEELRIEYLNIPVEKRSEDHFERHF | not soluble |
| MGSDKIHHHHHHMNETNFDWDDLRLFLAVAREGGLAAAAASTGKSAPTLGRRMLNLERRLGSDLFQRMARGYALTEDGQHLLAKAARLESLVLPITAIDPEQAIPVVKVSAGSWVTHLLCANVSEIIGSDRIRLRFIASDDVADIGRREALIGIRNHRPEGSGLAGRRITRVRFAVYARNRKVNTWARVIATTPSAKWVREEARTADAIEVTSPRNALDLALAGTARVVLPTFIGSQFDTLKQVSPLIGDLEHEQWLVTHHEDRFVPQVRKVIDRIYLILKQAKTSS | not soluble |
| MSLSPVPPPLVRVAPSLFLGSARAAGAEEQLARAGVTLCVNVSRQQPGPRAPGVAELRVPVFDDPAEDLLAHLEPTCAAMEAAVRAGGACLVYCKNGRSRSAAVCTAYLMRHRGLSLAKAFQVGGPLGGRCFERGVSSGDEFSGRGRLRDWDRHFREGRVSLMVKSARPVAEPNPGFWSQLQKYEEALQAQSEGHHHHHH | not soluble |
| DYKDDDDKVKLTCYQNGVSFTGGKAISEAKAASSQACQELCEKDAKCRFFTLASGKCSLFADDAALRPTKSDGAVSGNKRCILLED | soluble |
| MEYTSIADTGIEASRIGLGTWAIGGTMWGGTDEKTSIETIRAALDQGITLIDTAPAYGFGQSEEIVGKAIKEYMKRDQVILATKTALDWKNNQLFRHANRARIVEEVENSLKRLQTDYIDLYQVHWPDPLVPIEETAEVMKELYDAGKIRAIGVSNFSIEQMDTFRAVAPLHTIQPPYNLFEREMEESVLPYAKDNKITTLLYGSLCRGLLTGKMTEEYTFEGDDLRNHDPKFQKPRFKEYLSAVNQLDKLAKTRYGKSVIHLAVRWILDQPGADIALWGARKPGQLEALSEITGWTLNSEDQKDINTILENTISDPVGPEFMAPPTREEIPG | soluble |
| TLAYKEGFYYKPRIDYELLEKYGEGLIALTACLKGVPTYYASINEVKKAEEWVKKFKDIFGDDLYLELQANNIPEQEVANRNLIEIAKKYDVKLIATQDAHYLNPE | soluble |
| MAHHHHHHMYFLGEERHFRVLSLSFGVRGLQGSVTSEAAKIQTQMALQQTAYSACSRKVHCVSKHYLDDPFVHFFSRDMTIVNSPLMNRGTWLRTVAIERSVLSFARNWSADGPLQVISFGSGVDTLYFRLKKDHSEVNIVRYIELDFPDLVAEKQRVIEKTERLNQLVGPEYELVPCDLQKPDELREILKRVARNDVPTVLLAEMVFVYLEERTTTAILELTLNDVLKRDMCVLLIAYDAIRPNDRFGEVMVNSLASSGVPLRGIKELPTPEAHAERCKRVGLKSVMATSMRQLYLSVPQETQEWLKKLEMVDDWDEWCIMHDHYCFVLATNKAEALPTIF | not soluble |
| MGSDKIHHHHHHMEKQEIIEKLVELKDRLIEDVYQAYSRNTSDYGHERYNAWKKSVTKFLNQYIPNEVQRFNEKANPTYGVFLRRNGMSYHDFFWKTDGSAMNAYLESLILDIQNDDYDFTPINKEVQDVKTIPEAKSKKVLIVHGHDEAAKYRTEAFLRKHGFDPIILHLNASKGDTIIKKLERLAEGVGYGIVLYTPDDMGETKVKAVQHELQPRARQNVVFEHGYLMGLIGRPNVAAIVEGYVEKPSDIDGVVYIPSSNWEIDLLRELHEAGYPINPANL | not soluble |
| SLAAGVLPQNEQPYSTLVNNSECVANMKGNLERPTPKYTKVGERLRHVIPGHMACSMACGGRACKYENPARWSEQEQAIKGVYSSWVTDNILAMARPSSELLEKYHIIDQFLSHGIKTIINLQRPGEHASCGNPLEQESGFTYLPEAFMEAGIYFYNFGWKDYGVASLTTILDMVKVMTFALQEGKVAIHCHAGLGRTGVLIACYLVFATRMTADQAIIFVRAKRPNSIQTRGQLLCVREFTQFLTPLRNIFSCCDPKAHAVTLPQYLIRQRHLLHGYEARLLKHVPKIIHLVCKLLLDLAE | soluble |
| MSLSILVTGATGTIGSLVTQGLASAGADVKAMVRQPGKRDFPAGVTEVVADLTDVSSMRVALSSVRTLFLLNAVTPDEVTQALIALNLAQEAGIERIVYLSVIHADTFTNVPHFTGKYTVERMIESLDIPATILRPAYFMQNDLMVQQTIQSYSVYPMPIGSAGVSMIDARDIADVAVAELLRRDEASSALDLVTLELVGPQALTGASVAQTWSSALDREIAYGGDDVAAFEGQLASYGPGWLAYDMRLMMAGIQKFGMQAAEGAVERLEAIIGHPLRSYEGFVREATAGEGHHHHHH | soluble |
| MPFENAPHLVFWEVTKACPLTCKHCRANAIDKPLPGELNTEESRKLLEDIARFGKVVIVFTGGDPLSRSDIFELMEYAKSLGLVVSIAPSPSHRLDDETMKIISNYARYMSISLDGATSQTHDWLRGLGSYKYALRGIELGLKYGIQVQVNTLVWKKSYSELPFVVKLLKEMGVKIWEVFFLIPVGRGTTELDIPRDKYKDVIDFLVEATRYDLIVRTVEAPFFRRAKLEYTPATTNDNELVSTLRELLGEPVKEADKSILPTRDGAGVIFIGYNGDVYPSGFLPLYLGNVKKESLVDIYRKSEVLKKIKDSRFEGKCGICKYNNICGGSRARAFAVYNNPFAEDPMCPY | not soluble |
| MSLKKSPLTIVHLTDIHYDPEYVVGVNADCKAEACCRTLPDLAPATPETAAGYWSDYRDCDTPWHGVVDVMEHIRRQHPKIDAIYFTGDIVHHFTWNTSIETNEGAMRQVFDLMKRVFPGVPLYPVLGNHESHPANLYAPHDVEASYRMDYLYDFIADQWADWLPIKDIRPTLTEGGYYTVRTPYGVRIIGLNNNPCFVHNFWLFYSLDYFMPQLQWLHDTLLQAEWDNERVHILAHVPSYDDSCFIGWTREYRKIVERFAHIIAGQFNGHSHVDEFNLYYRRDDPSRAVSVAWNGGSTTTFTKLNPNYKVFQFDPVTFEPLEQETWMYNLTDANLTPDQRPSWYRLYSFKSYYQLPDLSVDSLHRLVQRFAQSEQQLHRYWQAKQKYSDPLLQEGCTSTCLRNALCAIVRTEHDDERACELLYERAAQSEGHHHHHH | not soluble |
